From paper PMC11417369, “DNA sequence and chromatin differentiate sequence-specific transcription factor binding in the human malaria parasite Plasmodium falciparum”

T1: AP2-G D1 (Plasmodium falciparum, UniProt Q8I5I9 2123-2245)
T1 sequence: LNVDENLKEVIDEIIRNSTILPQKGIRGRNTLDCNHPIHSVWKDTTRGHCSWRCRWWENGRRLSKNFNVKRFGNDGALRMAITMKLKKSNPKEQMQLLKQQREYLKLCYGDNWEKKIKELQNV

B1: XGTACX_site4853 (dsDNA)
DNA 1: TTTGACACAATATTTTGTACGAAACTATTAATTCAA
DNA 2: TTGAATTAATAGTTTCGTACAAAATATTGTGTCAAA
B2: XGTACX_site5737 (dsDNA)
DNA 1: TAATGGAATACATATAGTACATAATATTACATACAT
DNA 2: ATGTATGTAATATTATGTACTATATGTATTCCATTA
B3: XGTACX_site5674 (dsDNA)
DNA 1: TATCTAGTTACTCCTTGTACATAATAAATGATTTTT
DNA 2: AAAAATCATTTATTATGTACAAGGAGTAACTAGATA
B4: XGTACX_site8765 (dsDNA)
DNA 1: TTCCCTCCTCAAAATTGTACTAGAATAATAACATAA
DNA 2: TTATGTTATTATTCTAGTACAATTTTGAGGAGGGAA
B5: XGTACX_site972 (dsDNA)
DNA 1: GAAACAAAATTATTTTGTACATATGACTGTAGATAT
DNA 2: ATATCTACAGTCATATGTACAAAATAATTTTGTTTC
B6: XGTACX_site8448 (dsDNA)
DNA 1: AGGTTTCATTTAGCATGTACATATTATAAAAATTGT
DNA 2: ACAATTTTTATAATATGTACATGCTAAATGAAACCT
B7: XGTACX_site4930 (dsDNA)
DNA 1: TGGAGGATAGTTCACAGTACCCAGTAACTCTACGGA
DNA 2: TCCGTAGAGTTACTGGGTACTGTGAACTATCCTCCA
B8: XGTACX_site4821 (dsDNA)
DNA 1: AATAAAACATCATCATGTACAAAATTCGTCTTTGTA
DNA 2: TACAAAGACGAATTTTGTACATGATGATGTTTTATT
B9: XGTACX_site7465 (dsDNA)
DNA 1: TTTAATTCTTATATTTGTACAGATTCATAATTAAAT
DNA 2: ATTTAATTATGAATCTGTACAAATATAAGAATTAAA
B10: XGTACX_site841 (dsDNA)
DNA 1: TATATATATAATATATGTACTGATATGCTATTTACT
DNA 2: AGTAAATAGCATATCAGTACATATATTATATATATA
B11: XGTACX_site5075 (dsDNA)
DNA 1: AAATGAAGATTTAAATGTACGAGAGGGTATACAAAT
DNA 2: ATTTGTATACCCTCTCGTACATTTAAATCTTCATTT
B12: XGTACX_site5309 (dsDNA)
DNA 1: CTATACAATAAAAATTGTACATACATATATGTTATA
DNA 2: TATAACATATATGTATGTACAATTTTTATTGTATAG
B13: XGTACX_site3331 (dsDNA)
DNA 1: AAAAATTTTTTACATCGTACAGATATATATAATAAA
DNA 2: TTTATTATATATATCTGTACGATGTAAAAAATTTTT
B14: XGTACX_site2105 (dsDNA)
DNA 1: ATTAATTATTGTAATTGTACATTTTATATATATCCA
DNA 2: TGGATATATATAAAATGTACAATTACAATAATTAAT
B15: XGTACX_site5487 (dsDNA)
DNA 1: ACAAGTTTAACATTTCGTACTTATTGTGTTTTTTTT
DNA 2: AAAAAAAACACAATAAGTACGAAATGTTAAACTTGT
B16: XGTACX_site3854 (dsDNA)
DNA 1: AACCATTCTTCTAATTGTACATTGAAAAATCATGAT
DNA 2: ATCATGATTTTTCAATGTACAATTAGAAGAATGGTT
B17: XGTACX_site1104 (dsDNA)
DNA 1: ACCATATAATTTTTTTGTACATAATGATTTTTTTTT
DNA 2: AAAAAAAAATCATTATGTACAAAAAAATTATATGGT
B18: XGTACX_site8705 (dsDNA)
DNA 1: ACTAAAGTGTATCACTGTACAATTCTTCTCTTTTTT
DNA 2: AAAAAAGAGAAGAATTGTACAGTGATACACTTTAGT
B19: XGTACX_site1009 (dsDNA)
DNA 1: AATGTATTTATTTTTTGTACATATCGTGTGTGTATT
DNA 2: AATACACACACGATATGTACAAAAAATAAATACATT
B20: XGTACX_site4915 (dsDNA)
DNA 1: AACGAAAACACTACGTGTACCAAACGTCCTACTAAC
DNA 2: GTTAGTAGGACGTTTGGTACACGTAGTGTTTTCGTT
B21: XGTACX_site2966 (dsDNA)
DNA 1: AAACATATAAATCACGGTACACATTATTGAAAGTGT
DNA 2: ACACTTTCAATAATGTGTACCGTGATTTATATGTTT
B22: XGTACX_site2945 (dsDNA)
DNA 1: AAGCATAAAGTATATAGTACATATATATATATATAT
DNA 2: ATATATATATATATATGTACTATATACTTTATGCTT
B23: XGTACX_site2720 (dsDNA)
DNA 1: TCCTATTTTATATAATGTACATAAATATATTACATA
DNA 2: TATGTAATATATTTATGTACATTATATAAAATAGGA
B24: XGTACX_site84 (dsDNA)
DNA 1: AATTAAATGGATAAATGTACATATGTGAATATATTT
DNA 2: AAATATATTCACATATGTACATTTATCCATTTAATT
B25: XGTACX_site6680 (dsDNA)
DNA 1: TTTGTATATTATTTTAGTACATAACATTGAAGATAT
DNA 2: ATATCTTCAATGTTATGTACTAAAATAATATACAAA
B26: XGTACX_site583 (dsDNA)
DNA 1: ATAATATATATATAGTGTACATTTGAATATATTTGA
DNA 2: TCAAATATATTCAAATGTACACTATATATATATTAT
B27: XGTACX_site287 (dsDNA)
DNA 1: AACAAAGAAAATACATGTACAAAAAATATTAACGAA
DNA 2: TTCGTTAATATTTTTTGTACATGTATTTTCTTTGTT
B28: XGTACX_site2156 (dsDNA)
DNA 1: AATATATATATATATAGTACATATTTTTATTCATTA
DNA 2: TAATGAATAAAAATATGTACTATATATATATATATT
B29: XGTACX_site150 (dsDNA)
DNA 1: ATATACATATATATATGTACTGAAAAGAAAAGAATT
DNA 2: AATTCTTTTCTTTTCAGTACATATATATATGTATAT
B30: XGTACX_site8691 (dsDNA)
DNA 1: AAAAATATTTTGGTTTGTACATATATTTTTACAATA
DNA 2: TATTGTAAAAATATATGTACAAACCAAAATATTTTT
B31: XGTACX_site4444 (dsDNA)
DNA 1: ATATAATATTGAGTTTGTACATATATATATGAAGAT
DNA 2: ATCTTCATATATATATGTACAAACTCAATATTATAT
B32: XGTACX_site4926 (dsDNA)
DNA 1: ATCAACATTATGGTTAGTACTTAGTGAATTGTTAAT
DNA 2: ATTAACAATTCACTAAGTACTAACCATAATGTTGAT
B33: XGTACX_site1737 (dsDNA)
DNA 1: AGATCTATTATTTTTTGTACTTATATATAAACTTAA
DNA 2: TTAAGTTTATATATAAGTACAAAAAATAATAGATCT
B34: XGTACX_site8539 (dsDNA)
DNA 1: AAATAAAGTAAAATATGTACATAAATTAAAACACAT
DNA 2: ATGTGTTTTAATTTATGTACATATTTTACTTTATTT
B35: XGTACX_site8642 (dsDNA)
DNA 1: CAAAGCATAGTATGATGTACAAATGTTCCTATAATA
DNA 2: TATTATAGGAACATTTGTACATCATACTATGCTTTG
B36: XGTACX_site1414 (dsDNA)
DNA 1: CTATAATATTATAACAGTACATAATATTATATATAT
DNA 2: ATATATATAATATTATGTACTGTTATAATATTATAG
B37: XGTACX_site5503 (dsDNA)
DNA 1: TATATATATATAGGTTGTACATTTTGATGTTTACGT
DNA 2: ACGTAAACATCAAAATGTACAACCTATATATATATA
B38: XGTACX_site1856 (dsDNA)
DNA 1: ATAAATTATAATAACTGTACAAAAATAATATATTCA
DNA 2: TGAATATATTATTTTTGTACAGTTATTATAATTTAT
B39: XGTACX_site1874 (dsDNA)
DNA 1: GGTATAAAGAAATTTTGTACATATTTCTCCCTTTAA
DNA 2: TTAAAGGGAGAAATATGTACAAAATTTCTTTATACC
B40: XGTACX_site8657 (dsDNA)
DNA 1: ATTAAGATGTATATATGTACATATTACATACATATA
DNA 2: TATATGTATGTAATATGTACATATATACATCTTAAT
B41: XGTACX_site5139 (dsDNA)
DNA 1: TATATACAGAATATATGTACATATTCATTTTATATT
DNA 2: AATATAAAATGAATATGTACATATATTCTGTATATA
B42: XGTACX_site8514 (dsDNA)
DNA 1: AGTATTATATATATATGTACATAATATACATATATA
DNA 2: TATATATGTATATTATGTACATATATATATAATACT
B43: XGTACX_site3550 (dsDNA)
DNA 1: AATATTAAAGAATAATGTACAAAATAAAAGCAAAGA
DNA 2: TCTTTGCTTTTATTTTGTACATTATTCTTTAATATT

Target: T1, AP2-G D1
Experiment: gcPBM; about 25 ug protein; PBS, 1% milk, 0.2 mg/ml BSA, salmon testes DNA, 0.03% Triton X-100
Conditions: tags: N-terminal GST (pGEX-4T-1), kept; label: surface-attached array probe

Binder	binding signal
B1	11 ln median PBM intensity, better of two orientations
B2	11.3 ln median PBM intensity, better of two orientations
B3	11 ln median PBM intensity, better of two orientations
B4	11 ln median PBM intensity, better of two orientations
B5	11.2 ln median PBM intensity, better of two orientations
B6	11.6 ln median PBM intensity, better of two orientations
B7	10.9 ln median PBM intensity, better of two orientations
B8	10.6 ln median PBM intensity, better of two orientations
B9	11.2 ln median PBM intensity, better of two orientations
B10	11 ln median PBM intensity, better of two orientations
B11	11.2 ln median PBM intensity, better of two orientations
B12	11.3 ln median PBM intensity, better of two orientations
B13	11.2 ln median PBM intensity, better of two orientations
B14	11.1 ln median PBM intensity, better of two orientations
B15	10.9 ln median PBM intensity, better of two orientations
B16	11.1 ln median PBM intensity, better of two orientations
B17	11.1 ln median PBM intensity, better of two orientations
B18	10.9 ln median PBM intensity, better of two orientations
B19	11.2 ln median PBM intensity, better of two orientations
B20	11.5 ln median PBM intensity, better of two orientations
B21	11.6 ln median PBM intensity, better of two orientations
B22	11.3 ln median PBM intensity, better of two orientations

Binder	binding signal
B23	11.5 ln median PBM intensity, better of two orientations
B24	11.4 ln median PBM intensity, better of two orientations
B25	11.4 ln median PBM intensity, better of two orientations
B26	11.6 ln median PBM intensity, better of two orientations
B27	11.2 ln median PBM intensity, better of two orientations
B28	11.1 ln median PBM intensity, better of two orientations
B29	11.4 ln median PBM intensity, better of two orientations
B30	11.5 ln median PBM intensity, better of two orientations
B31	11.1 ln median PBM intensity, better of two orientations
B32	11 ln median PBM intensity, better of two orientations
B33	11.5 ln median PBM intensity, better of two orientations
B34	11.6 ln median PBM intensity, better of two orientations
B35	11 ln median PBM intensity, better of two orientations
B36	10.8 ln median PBM intensity, better of two orientations
B37	11.5 ln median PBM intensity, better of two orientations
B38	11.1 ln median PBM intensity, better of two orientations
B39	11.1 ln median PBM intensity, better of two orientations
B40	11.4 ln median PBM intensity, better of two orientations
B41	11.4 ln median PBM intensity, better of two orientations
B42	11.6 ln median PBM intensity, better of two orientations
B43	10.9 ln median PBM intensity, better of two orientations
